In assay [1] the target is T1, human SIRPβ1 on CHO cells (co-transfected with DAP12) (human, UniProt O00241 30-398).
T1 construct: whole, on cells; co-transfected with DAP12; also called Human SIRPβ1 CHO
The experiment in a line: flow cytometry.

The target of assay [2] is T2, cynomolgus monkey SIRPα on CHO cells (cynomolgus monkey, UniProt A0A2K5VYQ9 31-507).
T2 construct: whole, on cells; also called Cyno SIRPα CHO
T2 sequence: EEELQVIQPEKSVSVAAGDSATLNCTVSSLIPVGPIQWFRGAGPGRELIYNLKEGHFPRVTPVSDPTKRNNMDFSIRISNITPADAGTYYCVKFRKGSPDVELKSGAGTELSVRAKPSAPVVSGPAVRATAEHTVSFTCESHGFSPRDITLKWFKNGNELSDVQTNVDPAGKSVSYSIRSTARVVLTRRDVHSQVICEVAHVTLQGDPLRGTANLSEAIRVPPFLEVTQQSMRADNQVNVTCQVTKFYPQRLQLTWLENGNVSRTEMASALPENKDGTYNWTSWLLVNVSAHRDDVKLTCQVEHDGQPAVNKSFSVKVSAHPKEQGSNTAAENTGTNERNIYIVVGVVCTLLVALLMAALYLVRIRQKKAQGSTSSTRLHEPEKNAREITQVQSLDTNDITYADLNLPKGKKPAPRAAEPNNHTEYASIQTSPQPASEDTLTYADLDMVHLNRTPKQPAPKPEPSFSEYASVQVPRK
The experiment in a line: flow cytometry.

Assay [3] has as its target T3, human SIRPγ on stably transfected CHO cells (human, UniProt Q9P1W8 29-387).
T3 construct: also called Human SIRPγ CHO
The experiment in a line: flow cytometry, myc-scFv PPE. How it is done:
(§1) Selected antibodies were tested for binding to stably transfected human SIRPγ, SIRPαV1, or SIRPβ1 (co-transfected with DAP12) Chinese hamster ovary (CHO) cells via flow cytometry. A titration of select antibodies was added to the cells and detected using a fluorescently labelled secondary anti-rat IgG antibody or anti-human IgG antibody. Graphs depict the median fluorescence intensity (MFI) at each concentration. FIGS. 5A and 5G show the binding curves of select antibodies to human SIRPγ, cynomolgus monkey SIRPγ, human SIRPα, cynomolgus monkey SIRPα, human SIRPβ1, or cynomolgus monkey SIRPβl-expressing CHO cells detected using an anti-rat IgG antibody. FIGS. 5B-5F and 5H-5L show the binding curves of select antibodies to human SIRPγ, cynomolgus monkey SIRPγ, human SIRPα, cynomolgus monkey SIRPα, human SIRPβ1, or cynomolgus monkey SIRPβ1-expressing CHO cells detected using an anti-human IgG antibody. […] For select antibodies, each myc-tagged SIRPγ scFv antibody as crude PPE was incubated with each of the SIRP-expressing cell lines stated above along with the parental CHO-K1 cell line. […] Fold change value <2.0 is considered a non-binder.

The target in assay [4] is T4, cynomolgus monkey SIRPγ on CHO cells (cynomolgus monkey, UniProt Q9P1W8 29-386 (human entry)).
T4 construct: also called Cyno SIRPγ CHO
T4 chain: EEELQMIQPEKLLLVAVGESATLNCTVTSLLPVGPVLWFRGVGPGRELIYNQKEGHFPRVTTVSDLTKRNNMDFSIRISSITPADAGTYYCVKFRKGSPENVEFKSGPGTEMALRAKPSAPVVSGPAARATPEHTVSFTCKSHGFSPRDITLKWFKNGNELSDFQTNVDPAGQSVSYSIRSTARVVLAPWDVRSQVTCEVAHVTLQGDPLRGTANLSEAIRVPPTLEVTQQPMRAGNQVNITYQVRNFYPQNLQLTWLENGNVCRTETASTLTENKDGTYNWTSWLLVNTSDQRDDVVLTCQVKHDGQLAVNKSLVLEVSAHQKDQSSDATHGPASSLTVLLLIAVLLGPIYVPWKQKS
The experiment in a line: flow cytometry, myc-scFv PPE. How it is done: as §1

The target of assay [5] is T5, human SIRPγ-His monomer protein (human, UniProt Q9P1W8 29-360).
T5 construct: also called hSIRPγ
T5 sequence (Q9P1W8 29-360 limits assumed): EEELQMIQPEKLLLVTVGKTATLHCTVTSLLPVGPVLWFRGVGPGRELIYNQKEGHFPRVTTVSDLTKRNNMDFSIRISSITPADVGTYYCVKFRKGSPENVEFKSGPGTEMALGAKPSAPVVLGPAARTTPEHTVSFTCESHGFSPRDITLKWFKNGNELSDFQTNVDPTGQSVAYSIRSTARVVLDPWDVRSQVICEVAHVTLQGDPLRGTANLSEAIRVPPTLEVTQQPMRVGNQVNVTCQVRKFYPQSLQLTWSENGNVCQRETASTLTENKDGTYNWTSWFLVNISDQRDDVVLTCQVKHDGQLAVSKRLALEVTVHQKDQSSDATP
The experiment in a line: BLI Octet, V5-scFv PPE captured, SIRP-His 500 nM.

The source of these data is US20240400677A1 (ELECTRA THERAPEUTICS, published 2024).

T1 sequence (O00241 30-398): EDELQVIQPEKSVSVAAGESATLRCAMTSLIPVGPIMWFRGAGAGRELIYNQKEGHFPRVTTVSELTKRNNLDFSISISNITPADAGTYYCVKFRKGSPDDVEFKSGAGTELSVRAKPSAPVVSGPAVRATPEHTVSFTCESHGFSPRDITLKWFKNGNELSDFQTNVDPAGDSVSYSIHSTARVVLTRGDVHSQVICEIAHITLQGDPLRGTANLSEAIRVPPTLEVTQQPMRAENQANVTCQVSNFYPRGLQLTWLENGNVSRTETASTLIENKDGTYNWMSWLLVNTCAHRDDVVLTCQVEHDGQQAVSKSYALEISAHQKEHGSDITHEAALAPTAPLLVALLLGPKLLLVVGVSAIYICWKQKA
T3 sequence (Q9P1W8 29-387 limits assumed): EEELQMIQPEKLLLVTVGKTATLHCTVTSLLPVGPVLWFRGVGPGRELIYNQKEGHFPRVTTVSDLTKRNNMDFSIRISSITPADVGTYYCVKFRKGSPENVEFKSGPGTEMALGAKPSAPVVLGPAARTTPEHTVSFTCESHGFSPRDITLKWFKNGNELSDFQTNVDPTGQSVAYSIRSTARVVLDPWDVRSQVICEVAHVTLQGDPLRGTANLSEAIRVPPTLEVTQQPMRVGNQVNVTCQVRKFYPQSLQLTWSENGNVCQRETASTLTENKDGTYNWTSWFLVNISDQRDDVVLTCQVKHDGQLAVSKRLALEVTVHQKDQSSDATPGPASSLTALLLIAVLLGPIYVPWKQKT

B1: Antibody 16 (scFv, V domains shown)
VH: QVQLVQSGAEVKKPGASVKVSCKASGYTFTSYYMHWVRQAPGQGLEWMGWINPNSGNAGFAQKFQGRVTMTRDTSTSTVYMELSSLRSEDTAVYYCARGPVYSYGPFDYWGQGTLVTVSS
VL: DIQMTQSPSSLSASVGDRVTITCRASQGISTYLAWYQQKPGKAPKLLIYAASTLQSGVPSRFSGSGSGTDFTLTISSLQPEDFATYYCQQSHSAPITFGQGTKVEIK
notes: scFv in crude PPE, V5/myc-tagged
Turning to B1, the binding result in assay [1] and in assay [2] was “no binding (tested: fold change <2.0)” in each case. In addition, the “MFI fold change over parental CHO” value stood at 33 fold in assay [3] and 16.3 fold in assay [4].

B2: Antibody 21 (scFv, V domains shown)
VH: EVQLLESGGGLVQPGGSLRLSCAASGFTLGSYWMHWVRQAPGKGLEWVSLISWDGGSTYYADSVKGRFTISRDNSKNTLYLQMNSLRAEDTAVYYCAKGPWVGYSGYDLNYYYYGMDVWGQGTTVTVSS
VL: DIQMTQSPSSLSASVGDRVTITCRASQDIRRALAWYQQKPGKAPKLLIYAASSLQSGVPSRFSGSGSGTDFTLTISSLQPEDFATYYCLQHNSYPPTFGQGTKLEIK
notes: as for B1
Regarding B2, the binding result in assay [1] and in assay [2] was “no binding (tested: fold change <2.0)” throughout. This molecule came in with a kdis in assay [5] of 0.001 to 0.01 s⁻¹. The “MFI fold change over parental CHO” value in assay [3] stood at 51.4 fold; in assay [4] it was 96.1 fold.

B3: Antibody 14 (scFv, V domains shown)
VH: QVQLVQSGAEVKKPGASVKVSCKASGYTFTSYYMHWVRQAPGQGLEWMGWVDPNNGDTGYAQKFQGRVTMTRDTSTSTVYMELSSLRSEDTAVYYCARDNWGSLDVWGKGTTVTVSS
VL: DIVMTQSPLSLPVTPGEPASISCRSSQSLLHSNGYNYLDWYLQKPGQSPQLLIYAASTLQSGVPDRFSGSGSGTDFTLKISRVEAEDVGVYYCMQGLQTLYSFGQGTKLEIK
notes: as for B1
With B3, the binding result in assay [1] is “no binding (tested: fold change <2.0)”. Moreover, the kdis in assay [5] lay within 0.001 to 0.01 s⁻¹. Also, the results for the “MFI fold change over parental CHO” value in assay [3] and in assay [4] were 19.6 fold and 18 fold, respectively.

B4: Antibody 9 (scFv, V domains shown)
VH: QVQLVQSGAEVKKPGASVKVSCKASGYSFSDYYMHWVRQAPGQGLEWMGWMSPNSGNTGYAQKFQGRVTMTRDTSTSTVYMELSSLRSEDTAVYYCARQREEYGHYYYGMDVWGQGTMVTVSS
VL: EIVMTQSPATLSVSPGERATLSCRASQSLGSTYLAWYQQKPGQAPRLLIYGASTRATGIPARFSGSGSGTEFTLTISSLQSEDFAVYYCQQYYSSPPTFGQGTKVEIK
notes: as for B1
B4: the binding result in assay [1] and in assay [2] was “no binding (tested: fold change <2.0)” throughout. For the same molecule, the kdis in assay [5] lay within 0.001 to 0.01 s⁻¹. The “MFI fold change over parental CHO” value in assay [3] amounted to 10.4 fold; in assay [4], 6.87 fold.

B5: Antibody 35 (scFv, V domains shown)
VH: QVQLVQSGAEVKKPGASVKVSCKASGYTFTSYYIHWVRQAPGQGLEWMGTINPSGGSTSYAQKFQGRVTMTRDTSTSTVYMELSSLRSEDTAVYYCARETSRWLRDYYYGMDVWGQGTTVTVSS
VL: DIVMTQSPLSLPVTPGEPASISCRSSQSLLHSNGYNYLDWYLQKPGQSPQLLIYDASSLESGVPDRFSGSGSGTDFTLKISRVEAEDVGVYYCMQGTHWPLTFGGGTKVEIK
notes: as for B1
In the case of B5, the binding result in assay [2] was “no binding (tested: fold change <2.0)”. Also, in assay [5], the kdis lay in the range of 0.001 to 0.01 s⁻¹. For the same molecule, the results for the “MFI fold change over parental CHO” value in assay [3] and in assay [4] were 18.3 fold and 12.8 fold, respectively.

B6: Antibody 20 (scFv, V domains shown)
VH: QVQLVQSGAEVKKPGASVKVSCKASGYTFTSYDINWVRQAPGQGLEWMGWMNPNSGNTGYAQKFQGRVTMTRDTSTSTVYMELSSLRSEDTAVYYCARESYAYCSSTSCYDAFDIWGQGTMVTVSS
VL: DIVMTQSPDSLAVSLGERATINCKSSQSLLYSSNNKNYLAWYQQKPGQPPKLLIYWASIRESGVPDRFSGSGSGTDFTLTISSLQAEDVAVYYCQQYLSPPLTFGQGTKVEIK
notes: as for B1
As to B6, the binding result in assay [1] and in assay [2] was “no binding (tested: fold change <2.0)” throughout. For the same molecule, the kdis in assay [5] is under 0.001 s⁻¹. Moreover, the “MFI fold change over parental CHO” value is 8.87 fold in assay [3] and 10.5 fold in assay [4].
